T1: Human hepcidin peptide (hepcidin-25) (human)
T1 sequence (peptide): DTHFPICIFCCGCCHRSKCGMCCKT


Tests used:
[1] = molecular target: Hepcidin MAb 583; test: competitive ELISA on mAb 583 coated wells; competitor biotinylated hepcidin-25 tracer; standard at 10 ng/mL
[2] = molecular target: Hepcidin MAb 583; test: competitive ELISA on mAb 583 coated wells; competitor biotinylated hepcidin-25 tracer; standard at 2.5 ng/mL
[3] = molecular target: Hepcidin MAb 583; test: competitive ELISA on mAb 583 coated wells; competitor biotinylated hepcidin-25 tracer; standard at 250 ng/mL
[4] = molecular target: Hepcidin MAb 583; test: competitive ELISA on mAb 583 coated wells; competitor biotinylated hepcidin-25 tracer; standard at 1000 ng/mL
[5] = molecular target: Hepcidin MAb 583; test: competitive ELISA on mAb 583 coated wells; competitor biotinylated hepcidin-25 tracer; standard at 25 ng/mL
[6] = molecular target: Hepcidin MAb 583; test: competitive ELISA on mAb 583 coated wells; competitor biotinylated hepcidin-25 tracer; standard at 50 ng/mL
[7] = molecular target: Hepcidin MAb 583; test: competitive ELISA on mAb 583 coated wells; competitor biotinylated hepcidin-25 tracer; standard at 100 ng/mL
[8] = molecular target: Hepcidin MAb 583; test: competitive ELISA on mAb 583 coated wells; competitor biotinylated hepcidin-25 tracer; standard at 0 ng/mL
[9] = molecular target: T1, Human hepcidin peptide (hepcidin-25) (human); test: Biacore (SPR); lower end of the estimated range 7-8 pM
[10] = molecular target: T1, Human hepcidin peptide (hepcidin-25) (human); test: Biacore (SPR); upper end of the estimated range 7-8 pM
[11] = molecular target: T1, Human hepcidin peptide (hepcidin-25) (human); test: method not stated

Chain of Hepcidin MAb 583 (heavy, as listed by the source, chain 1 of 2): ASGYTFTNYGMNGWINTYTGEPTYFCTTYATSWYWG
Chain of Hepcidin MAb 583 (light, as listed by the source, chain 2 of 2): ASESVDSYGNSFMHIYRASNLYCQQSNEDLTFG

Absorbance (450 nm) [1] [OD 450 nm] | Absorbance (450 nm) [2] [OD 450 nm] | Absorbance (450 nm) [3] [OD 450 nm] | Absorbance (450 nm) [4] [OD 450 nm] | Absorbance (450 nm) [5] [OD 450 nm] | Absorbance (450 nm) [6] [OD 450 nm] | Absorbance (450 nm) [7] [OD 450 nm] | Absorbance (450 nm) [8] [OD 450 nm] | Kd [9] [pM] | Kd [10] [pM] | affinity (unit not given) [11] | Binder
1.61 | 2.14 | 0.1 | 0.03 | 0.9 | 0.47 | 0.24 | 2.36 | – | – | – | DTHFPICIFCCGCCHRSKCGMCCKT [Human hepcidin peptide (hepcidin-25)]
– | – | – | – | – | – | – | – | 7 to 8 | 7 to 8 | 5.16e-11 | Hepcidin MAb 583 (antibody, from a related filing, V domains shown, part only) VH: QIQLVQSGPELKKPGETVKISCKASGYTFTNYGMNWVKQAPGKGLKWMGWINTYTGEPTYADDFKGRFAFSLETSASTAYLQINNLKNEDTATYFCTTYATSWYWGQG VL: DIVLTQSPASLAVSLGQRATISCRASESVDSYGNSFMHWYQQKPGQPPKLLIYRASNLESGIPARFSGSGSRTDFTLTINPVEADDVATYYCQQSNEDLTFG
